Experimental findings from patent publication US12516130B2, “Single-domain antibody for targeting prostate specific membrane antigen (PSMA)” (NATIONAL INSTITUTE FOR BIOTECHNOLOGY IN THE NEGEV LTD., priority 2019, dated 2026) are described below.

The labels stand for the following.
B1: NB13: anti-PSMA camel nanobody (VHH, ~16 kDa) selected by phage display (protein)
VHH: QVQLQESGGGSVQTGGSLRLSCAASGYTASFSWIGYFRQAPGKEREGVAVINVGVGSTYYADSVKGRFTISRDNTENTISLEMNSLKPEDTGLYYCAGSLRWSRPPNPISEDAYNYWGQGTQVTVSSAAAYPYDVPDYGS
B2: NB7: anti-PSMA camel nanobody (VHH, ~16 kDa) selected by phage display; PDB 6XXN (protein)
VHH: QVQLQESGGGSVQAGGSLRLSCTAPGYTDSNYYMSWFRQAPGKEREWVAGVNTGRGSTSYADSVKGRFTISQDNAKNTMFLQMNSLKPEDTAIYYCAVAACHFCDSLPKTQDEYILWGQGTQVTVSSAAAYPYDVPDYGS
B3: NB8: anti-PSMA camel nanobody (VHH, ~16 kDa) selected by phage display; PDB 6XXO (protein)
VHH: QVQLQESGGGSVQAGGSLRLSCARSGWPYSTYSMNWFRQAPGKEREAVAGISSTMSGIIFAESKAGQFTISQDNAKNTVYLQMNNLKPEDTAIYYCAARRDYSLSSSSDDFDYWGQGTQVTVSSAAAYPYDVPDYGS
B4: NB37: anti-PSMA camel nanobody (VHH, ~16 kDa) selected by phage display; PDB 6XXP (protein)
VHH: B3 VHH with Q13E

Residue numbers refer to the chain shown, from its start.

T1 sequence (Q04609 44-750): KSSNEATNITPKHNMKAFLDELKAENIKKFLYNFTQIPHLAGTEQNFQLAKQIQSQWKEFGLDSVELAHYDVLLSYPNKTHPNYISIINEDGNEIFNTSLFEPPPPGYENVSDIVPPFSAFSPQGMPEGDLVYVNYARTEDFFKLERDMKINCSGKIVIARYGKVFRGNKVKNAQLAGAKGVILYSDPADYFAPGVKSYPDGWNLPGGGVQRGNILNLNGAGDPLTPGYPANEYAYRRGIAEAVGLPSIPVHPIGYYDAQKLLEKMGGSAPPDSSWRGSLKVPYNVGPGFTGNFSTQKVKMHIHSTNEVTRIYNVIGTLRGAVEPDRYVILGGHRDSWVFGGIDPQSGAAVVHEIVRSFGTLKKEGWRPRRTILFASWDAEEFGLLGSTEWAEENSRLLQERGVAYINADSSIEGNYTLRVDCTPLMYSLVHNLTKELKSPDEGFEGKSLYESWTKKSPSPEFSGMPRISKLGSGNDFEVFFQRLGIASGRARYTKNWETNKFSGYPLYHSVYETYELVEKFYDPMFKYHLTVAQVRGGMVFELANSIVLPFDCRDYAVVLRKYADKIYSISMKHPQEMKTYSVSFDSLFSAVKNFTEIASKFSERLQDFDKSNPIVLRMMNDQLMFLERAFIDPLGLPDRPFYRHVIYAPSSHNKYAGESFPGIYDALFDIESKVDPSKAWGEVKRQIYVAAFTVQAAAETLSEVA

One series addresses T1, PSMA (Homo sapiens, UniProt Q04609).
T1 construct: purified extracellular domain of PSMA [residues 44-750; purchased from Caltech Protein Expression Center, CA]; purchased Caltech Protein Expression Center, CA
In words: Surface plasmon resonance binding assay. Particulars: SPR, immobilized NB, 1:1 Langmuir model, 25° C., means ± SD. As for the experimental part: The affinity of each NB to PSMA was determined by using surface plasmon resonance (SPR) spectroscopy on a ProteOn XPR36 chip (Bio-Rad, CA). The chip was activated by using sulfo-NHS (0.1 M N-hydroxysuccinimide) and EDC [0.4 M 1-ethyl-3-(3-dimethylaminopropyl)-carbodiimide]. Each NB (0.2 μg) was immobilized in a 10 mM sodium acetate buffer, pH 5.0, at a flow rate of 30 μl/min. Bovine serum albumin (BSA) (3 μg) was immobilized on the chip as a negative control. Unbound esters were deactivated with 1 M ethanolamine HCl at pH 8.5. The soluble PSMA was then applied over the chip at concentrations of 2.94, 5.88, 11.75, 23.50, or 47.00 nM (for NBs 8, 13, and 37) or of 25, 50, 100, 1,600, or 3,200 pM (for NB7), at a flow rate of 25 μl/min. During this time, the association between the NBs and PSMA was measured. The dissociation was measured while flowing 50 μl/min PBST (namely, a phosphate-buffered saline with 0.005% Tween). For each protein complex, a binding sensogram was generated by subtracting the values of the PSMA response to BSA from those of the PSMA response to the NBs. The dissociation constant (KD) was determined from the Langmuir 1:1 kinetic model. The temperature throughout the binding measurements was set at 25° C.
(Surface plasmon resonance follows binding to a sensor surface in real time, without labels.)
Molecule B1 returned a Koff of 2.2e-05 ± 9.9e-07 s⁻¹ and a Kon of 36000 ± 89 M⁻¹ s⁻¹.
B2: the Koff worked out at 3.9e-05 ± 2.8e-07 s⁻¹ and the Kon turned out to be 710000 ± 450 M⁻¹ s⁻¹.
In turn, B3 yielded a Koff of 0.00012 ± 5.3e-07 s⁻¹ and a Kon of 20000 ± 42 M⁻¹ s⁻¹.
The molecule B4 yielded a Koff of 7.5e-05 ± 6.6e-07 s⁻¹ and a Kon of 22000 ± 53 M⁻¹ s⁻¹.

Still in this series, the particulars now being: stated per SEQ ID NO in the description.
On to B1, for which the “binding constant (Ka) to PSMA” value was “about 3.6×10^4 M^−1 s^−1”.
As to B2, the “binding constant (Ka) to PSMA” value was “about 7.1×10^5 M^−1 s^−1”.
On to B3, for which the “binding constant (Ka) to PSMA” value is reported as “about 2×10^4 M^−1 s^−1”.
In the case of B4, the “binding constant (Ka) to PSMA” value was “about 2.2×10^4 M^−1 s^−1”.

A further series addresses T1, PSMA. In words: Small-angle X-ray scattering of PSMA-NB complexes. Particulars: PSMA + NB, method GNOM. Here is the method:
The small-angle X-ray scattering (SAXS) of monomeric PSMA was measured in PBS at a final concentration of 0.5-3 mg/ml. For PSMA-NB complex samples, the concentration of PSMA was 0.5 mg/ml and the concentrations of the NBs were 0.1-0.5 mg/ml. Measurements were performed in beamline BM29 at the ESRF. The X-ray wavelength was 1.5 Å and the temperature was 4° C. The detector was Pilatus 1 M and the sample-to-detector distance was set at 2.86 m, with a scattering vector (q) range of 0.0025-0.5 Å^−1. At a scattering angle of 2θ, the magnitude of the scattering vector (q) is defined as: […]
The experimental SAXS data for all samples were linear in the low q, Guinier region. The radii of gyration (Rg) were derived from data in the qRg<1 region by using the Guinier approximation:
The inventors analyzed the small-angle region (0.012<q<0.08 Å^−1) of the scattering profiles using the Guinier approximation embedded in the GNOM method.
The scattering curve reflects structural characteristics in reciprocal space. Scattering profiles were translated into real space by Fourier transformation, resulting in the pairwise-distance distribution function P(r). This function reflects the distances between pairs of scattering points within the macromolecule, allowing the determination of the maximum dimension of the particle (Dmax). To obtain a reliable quantification of Dmax, the inventors incorporated GNOM with in-house scripts. The Rg of monomeric PSMA extracted from SAXS data was compared to the calculated Rg from the crystal structure of monomeric PSMA (PDB 3D7D) using CRYSOL. The overall three-dimensional ab initio models of PSMA and PSMA-NB complexes were restored from the experimental scattering data by using Dammin. Shape reconstruction was performed to represent the molecular shape as a closely packed sphere assembly within a search volume defined by Dmax, chosen with a χ^2<1.3 for all models. For all samples, 20 low-resolution models were averaged using the program DAMAVER to yield an averaged model representing the general structural features of each reconstruction.
B1: the Dmax amounted to 120 Å and the Rg was 40.5 Å.
Taken in the same sequence, the figures for B2 were 120 Å and 42.4 Å.
Regarding B3, the Dmax was 100 Å and the Rg was determined as 39.4 Å.
In the case of B4, the Dmax is 110 Å and the Rg was 38.6 Å.

The series is the same for the next values; noted with them: PSMA + NB, method Guinier.
Turning to B1, the Rg worked out at 43.8 Å.
Regarding B2, the Rg came out at 48.2 Å.
On to B3, for which the Rg is 40.5 Å.
The same measure, in the same setting: with B4 the figure was 40.4 Å.

Still in this series, the particulars now being: SAXS, PSMA 0.5 mg/ml.
For B1, the “shift of Rg of PSMA-NB complex from the original Rg of PSMA (43 Å)” value is listed as “lower Rg”.
Regarding B2, the “shift of Rg of PSMA-NB complex from the original Rg of PSMA (43 Å)” value is reported as “higher Rg”.
The same measure, in the same setting: next, B3: “lower Rg”; B4: “lower Rg”.

The same series, now with this note: SAXS; PSMA alone 115 Å.
For B1, the “change of Dmax on binding of PSMA to NB” value is on record as “increased Dmax”.
Take B2: the “change of Dmax on binding of PSMA to NB” value is “increased Dmax”.
Take B3: the “change of Dmax on binding of PSMA to NB” value is reported as “decreased it”.
For B4, the “change of Dmax on binding of PSMA to NB” value is given as “decreased it”.

Another series relates to PC3-PIP (PSMA+) and PC3-flu (PSMA−) xenografts. In words: In vivo optical (NIR) imaging of labeled NBs. Particulars: ex vivo, after 3 h. Also on record: species or system athymic nude mice. Here is the method: Tumor xenografts were generated in 6-week old male athymic nude mice by using PC3-PIP and PC3-flu cells. Each mouse was simultaneously injected subcutaneously with 2×10^6 cells of each line, diluted 1:1 with Matrigel (Corning, USA); PC3-PIP cells were injected above the right upper flank, while PC3-flu cells were injected above the left one. Nine days after the inoculation, as the tumors reached a size of ˜200 mm^3, these mice were injected intravenously with 1.5 nmole of either NB7, NB8, NB13, or NB37 (four mice per group) labeled with NHS-ester AlexaFluor680 (Invitrogen). In addition to these 16 mice, four tumor-bearing mice were not injected with any NB, while four other mice were injected with the labeled NBs (a different NB per mouse) but were not implanted with a xenograft. The mice were anesthetized with isoflurane at different time points (see below) and the distribution of the fluorescently labeled protein was measured in near infra-red (NIR) optical imaging using the IVIS Lumina system (PerkinElmer, USA). Exposure time was set at 1 s. The fluorescence signal was measured at the time of injection, and 0.5, 1, 2, 3, 6, 10, 18, 24, 28, 32, 36, 48 and 56 h after injection. Images of the mice were acquired 3 and 6 h after injection, and again when a signal was no longer detected (24-56 h after injection). At each time point, one mouse from each group of tumor-bearing mice that had been injected with a NB was euthanized for an ex vivo quantification of the fluorescent signal in its organs, using the Living Image software.
In the case of B3, the “signal intensity in the PC3-PIP tumor” value is recorded as 171,000 counts/cm^2/s, the “signal intensity in the PC3-flu tumor” value is on record as 21,300 counts/cm^2/s and the “signal intensity in the kidneys” value is reported as 94,700 counts/cm^2/s.

The same series, now with this note: whole-body NIR imaging, 1.5 nmole AlexaFluor680-labeled NB i.v.
Take B1: the “duration until the fluorescent signal was no longer detected (late time point)” value was found to be 32 h.
Same read-out and setting: next, B2: more than 56 h.
With B3, the “duration until the fluorescent signal was no longer detected (late time point)” value is 32 h.
Regarding B4, the “duration until the fluorescent signal was no longer detected (late time point)” value was found to be 24 h.

The test system of another series is PC3-PIP cells. In words: Time-dependent quantification of NB internalization. In kind it is cell-based. Particulars: 100 nM, imaged every 40 min for 16 h. As for the experimental part:
NB7, NB8, NB13, and NB37, each labeled with Dylight488, were individually incubated for 1 h (at 100 nM) in a 96-well plate. On each well, 1.5×10^4 PC3-PIP cells were seeded and grown overnight, and then the wells were imaged every 40 min for a total of 16 h, using the Operetta CLS high-content analysis system (Perkin Elmer). Each well was imaged as 24 fields, which were later combined to create an image of the entire well. Using the Operetta analysis software, the cells were qualitatively classified into two groups according to the distribution of NBs: (i) mostly on the cell membrane, and (ii) mostly inside the cytoplasm. The number of cells in each group was quantified at each time point and the ratio between the numbers of cells in each group was calculated.
Consider B1, for which the “internalization into PSMA-expressing cells (cytoplasm/membrane ratio over time)” value is “much faster”.
Consider B2, for which the “internalization into PSMA-expressing cells (cytoplasm/membrane ratio over time)” value was “much faster”.
